In publication PMC8189464, “SARS-CoV-2 Envelope (E) protein interacts with PDZ-domain-2 of host tight junction protein ZO1” (PLoS ONE, 2021):
*: point of attachment. Biotin = O=C1N[C@H]2[C@H](CS[C@H]2CCCCC(=O)*)N1

Biological target: T1, GST-PDZ domain #2 of human Zona Occludens-1 (ZO1) (human, UniProt Q07157 186-264)
T1 construct: second PDZ domain (PDZ domain #2) of human Zona Occludens-1 (ZO1), from plasmid pGEX-ZO1-2/3; also called GST-ZO1 PDZ domain #2; GST-ZO1-PDZ-2; source: E. coli BL21(DE3), purified (glutathione-Sepharose 4B); on the array: purified GST fusion protein
T1 sequence (looked up): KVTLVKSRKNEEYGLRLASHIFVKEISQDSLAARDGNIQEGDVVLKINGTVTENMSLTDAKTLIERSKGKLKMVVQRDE
Experiment: AlphaScreen or HTRF; GST protein pre-bound to anti-GST-terbium donor antibody, biotinylated peptide pre-bound to streptavidin-d2 acceptor; serial 1:2 dilutions of both in a matrix; 25 mM HEPES pH 7.4, 150 mM NaCl, 5 mM MgCl2, 0.005% Tween-20; 1 hr incubation; one-site saturation binding fit; Kd at 3 nM GST-ZO1 PDZ domain #2
Conditions: both partners purified

**Q.** For Biotin-SRVKNLNSSRVPDLLV-OH (also called WT E peptide; Bt-WT peptide) [SARS-CoV-2 E WT peptide (Biotin-SRVKNLNSSRVPDLLV-COOH)], which Kd is on record?
**A.** 29 nM
